For orientation: stoichiometry N means a count of units in the complex or per binding partner.

Consider two molecules from PMC11975282.

The target of experiment [1] is Apt1-Flag fusion protein (human), O75608. As to the kind of experiment: native gel or EMSA. The following applies: remark: other sources report otherwise. (A gel shift assay detects complexes by their altered migration in electrophoresis.)
In experiment [2] the target is Apt2-Flag fusion protein (human), O95372. Put plainly: native gel or EMSA. Conditions: remark: other sources report otherwise.

B1: Apt1-Flag fusion protein, O75608 1-230 (enzyme)
chain: MCGNNMSTPLPAIVPAARKATAAVIFLHGLGDTGHGWAEAFAGIRSSHIKYICPHAPVRPVTLNMNVAMPSWFDIIGLSPDSQEDESGIKQAAENIKALIDQEVKNGIPSNRIILGGFSQGGALSLYTALTTQQKLAGVTALSCWLPLRASFPQGPIGGANRDISILQCHGDCDPLVPLMFGSLTVEKLKTLVNPANVTFKTYEGMMHSSCQQEMMDVKQFIDKLLPPID
Take B1: in experiment [1], the stoichiometry N amounted to 2.

B2: Apt2-Flag fusion protein, O95372 1-231 (enzyme)
chain: MCGNTMSVPLLTDAATVSGAERETAAVIFLHGLGDTGHSWADALSTIRLPHVKYICPHAPRIPVTLNMKMVMPSWFDLMGLSPDAPEDEAGIKKAAENIKALIEHEMKNGIPANRIVLGGFSQGGALSLYTALTCPHPLAGIVALSCWLPLHRAFPQAANGSAKDLAILQCHGELDPMVPVRFGALTAEKLRSVVTPARVQFKTYPGVMHSSCPQEMAAVKEFLEKLLPPV
The molecule B2 displayed a stoichiometry N in experiment [2] of 2.
